Laboratory results published in the nanobody polyreactivity screen of Harvey et al. (2022).

Experiment: yeast display, Sf9 membrane polyspecificity reagent, FACS + sequencing; frameworks hold sequencing errors
Summary of the method: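 After 36–48 hours of galactose induction, yeast (Saccharomyces cerevisiae BJ5465) displaying a synthetic nanobody library were stained at 4 °C for 1 hour with 10% biotinylated, detergent-solubilized Sf9 membrane reagent. Streptavidin microbeads enriched the stained cells before FACS sorting into low and high (top ~1%) gates on anti-HA and streptavidin fluorescence. Each clone's polyreactivity label reflects its gate of origin.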

Row | Sequence | polyreactivity (PSR sort gate)
1 | QVQLVESGGGLVQAGGSLRLSCAASGRIFPVNAMGWYRQAPGKERELVATISSGDITNYADSVKGRFTISRDNAKNTVYLQMNSLKPEDTAVYYCAADYTWRAWTYYGIKYNYWGQGTQVTVSS | low polyreactivity
2 | QVQLVESGGGLVQAGGSLRLSCAASGRIFPVYAMVSYRQAPGKERELVAAISKRDGSTSYADSVKGRFTISRDNAKNTVYLQMHSLKPEDTAVYYCNVLGYGSSYDYWGQGTQVTVSS | low polyreactivity
3 | QVQLVESGGGLVQAGGSLRLSCAASGRIFPWYAMGWYRQAPGKERELVAAITSGGGSTSYADSVKGRFTISRDNAKNTVYLQMNRLKPEDTAVYYCAARRWISSHSYKYGYWGQGTQVTVSS | high polyreactivity
4 | QVQLVESGGGLVQAGGSLRLSCAASGRIFPWYAMGWYRQAPGKERELVATISSSGRTNYADSVKGRFTISRDNAKNTVYLQLNSLQPEDTAVYFCAATLYHYWYADFDYWGQGTQVTVSS | high polyreactivity
5 | QVQLVESGGGLVQAGGSLRLSCAASGRIFPYNAMGWYRQAAGKERELVAAISLSGDSTYYADSVKGRFTISRDNAKNTVFLHMNSLKPEDTAVYYCNAPSYWYYPVLGSFLTFEYWGQGTQVTVSS | low polyreactivity
6 | QVQLVESGGGLVQAGGSLRLSCAASGRIFPYNAMGWYRQAPGKERELVAAISFGGGRTYYADSVKGRFTISRDNAKNTVYLQMNRLKPEDTAVYYCNTASPQDIVFRVFYGGDYWGQGTQVTVSS | low polyreactivity
7 | QVQLVESGGGLVQAGGSLRLSCAASGRIFPYYAMGWYRQAPGKEREFVAAITKRGGSTSYADSVKGRFTISRDNAKNTVYLQMNSLKPEDTAVYYCAARRGSGIVTYYGGDYWGQGTQVTVSS | low polyreactivity
8 | QVQLVESGGGLVQAGGSLRLSCAASGRIFPYYAMGWYRQAPGKERELVASIRYSAVNTYYADSVKGRFTISRDNAKNTVYVQMNSLKPEDTAVYYCWYTQNTLGNYWGQGTQVTVSS | low polyreactivity
9 | QVQLVESGGGLVQAGGSLRLSCAASGRIFPYYAMGWYRQAPGKERELVATISTAGSTNYADSVKGRFTISRDNAKNTVYLQMNSMKPEDTAVYYCATRNTWYHRGYDFWGLGTQVTVSS | low polyreactivity
10 | QVQLVESGGGLVQAGGSLRLSCAASGRIFPYYAMGWYRQAPGKVRELVASIRYSAGNTYYADSVKGRFTISRDNAKNTVYLQMNSLKPEDTAVYYCWYTQNTLGNYWGQGTQVTVSS | low polyreactivity
11 | QVQLVESGGGLVQAGGSLRLSCAASGRIFPYYTMGWYRPAPGKERELVAAISRRGSSTYYADSVKGRFTISRDNAKNTVYLQMNSLKPEDTAVYFCAADRGGYTRTGEYDYWGQGTQVTVSS | high polyreactivity
12 | QVQLVESGGGLVQAGGSLRLSCAASGRIFQDYAMGWYRQATGKERELVAAITWSGGRTYYADSVKGRFTISRDNAKNTVYLQMNSLKPEDTAVYYCNRLTQSRLYYGPREYYYWGQGTQVTVSS | high polyreactivity
13 | QVQLVESGGGLVQAGGSLRLSCAASGRIFQHNTMGWYRQAPGKERELVAAITRGGRTNYADSVKGRFTISRDNAKNTVYLQMNSLKPEDTAVYYCAARYVERHTDYYYWGQGTQVTVSS | low polyreactivity
14 | QVQLVESGGGLVQAGGSLRLSCAASGRIFQLYTMGWYIQAPGKERELVAAITSGTSTSYADSVKGRFTISRDNAKNTVYLQMNSLKPEDTAVYYCNKGSVSYSSVFVPYESDYWGQGTQVTVSS | low polyreactivity
15 | QVQLVESGGGLVQAGGSLRLSCAASGRIFQPNAMGWYRQAPGKEREFVAAISSSGGYTFYADSVKGRFTISRDNAKNTVYLQMNSLKPEDTAVYYCAKRYGYTEYFYWGQGSQVTVSS | high polyreactivity
16 | QVQLVESGGGLVQAGGSLRLSCAASGRIFQQYALGWYRQAPGKEREWVAVITYRAGRTHYADSVKGRFTISRDNAKNTVYLQMNSLKPEDTAVYYCAAGRYYAVWQSISGFDSWGQGTQVTVSS | low polyreactivity
17 | QVQLVESGGGLVQAGGSLRLSCAASGRIFQRNTMGWYRQAPGKERELVAAITWNGGSTYYADSVKGRFTISRDNAKNTVFLQMNSMKPEDTAVDYCATAYRYSVHKALGFNYWGQGTQVTVSS | high polyreactivity
18 | QVQLVESGGGLVQAGGSLRLSCAASGRIFQRYAMGWYRPAPGKERELVAAISSRGGRTFYADSVKGRFTISRDNAMYSVYLQMNSLKPEDSAAYYCAATATVGSVTFDYWGQGTQVSVSS | high polyreactivity
19 | QVQLVESGGGLVQAGGSLRLSCAASGRIFQRYAMGWYRQAPGKERELVAGITSSGGSTYYADSVKGRFTISRDNAKNTVYLQMNSLKPEDTAVYYCNAGGELRYYGYRAGGTTRSYDYWGQGTQVTVSS | low polyreactivity
20 | QVQLVESGGGLVQAGGSLRLSCAASGRIFQTNVMGWYRQAPGKEKELVAAISYRGGTTYYEDSVKARFTISRDNAQNTVYLPMYSLYPEDTAVYYCAALHYRIRRTGMDYWGQGTQVTVSS | low polyreactivity
21 | QVQLVESGGGLVQAGGSLRLSCAASGRIFQTYAMGWYRQAPGKERDLVASITSGVDTYYADSVKGRFTISRDNAKNTVYLQMNSLKPEDNAVYYCAAEPYRTVTAYRYSLYWYNYWGQGTQVTVSS | high polyreactivity
22 | QVQLVESGGGLVQAGGSLRLSCAASGRIFQWYAMGWYRQAPGKERELVAAIRNGGTTNYADSVKGRFTISRDNAKNTVYLQMNSLKPEDTAVYYCNADKYRTWVFQPRYPGGYWGQGTQVTVSS | low polyreactivity

Row | Sequence | polyreactivity (PSR sort gate)
23 | QVQLVESGGGLVQAGGSLRLSCAASGRIFQYNAMGWYRQAPGKEREFVAAIRRGGGSTYYADSVKGRFTISRDNAKNTVYLQMNSLKPEDTAVYYCAARRKRVSFYPEYDYWGQGTQVTVSS | low polyreactivity
24 | QVQLVESGGGLVQAGGSLRLSCAASGRIFQYNAMGWYRQATGKERELVAAITWSSGSTYYADSVKGRFTISRDNAKNTVYLQMNSLKPEDTAVYYCNTVRVLYYDRQFLFRGSRFGYWGQGTQVTVSS | high polyreactivity
25 | QVQLVESGGGLVQAGGSLRLSCAASGRIFQYNVIGWYRQARWKERELVAAISSGGNTYYADSVKGRFTISRDNAKNTVYLQMNSLKPEDTSFYYCAADHYVPWPNYDYDYWGQGTQETVSS | low polyreactivity
26 | QVQLVESGGGLVQAGGSLRLSCAASGRIFQYYAMGRYGQAPGKERELVARISSRGGSTYYADSVKGRFTISRDNAKNTVYLQMNSLKPEDTAVYYCNTRWYSSYYQPSYNYWGQGTQVTVSS | high polyreactivity
27 | QVQLVESGGGLVQAGGSLRLSCAASGRIFQYYAMGWYRQAPGKERELVAAINSSGGRTYYADSVKGRFTISRDTAKNTVYLQMNSLTPEDTAVNSCNAVLSTRGMDYWGQGTQVTVSS | high polyreactivity
28 | QVQLVESGGGLVQAGGSLRLSCAASGRIFRAYTMGWYRQAPGKERELVAAISGSGTSTYYADSVKGRFTISRDNAKNTVYLQMNSLKPEDTAVYYCAAPSLSGYGYEYWGQGTQVTVSS | high polyreactivity
29 | QVQLVESGGGLVQAGGSLRLSCAASGRIFRDYDMGWYRQAPGKERELVASISTRGGSTYADSVKGRFTISRDNAKNTVYLQMNSLKPEDTAVYYCAADSSGFSRYDYWGQGSQVTVSS | low polyreactivity
30 | QVQLVESGGGLVQAGGSLRLSCAASGRIFRFNAMGWYRQAPGKERELVAAITGSGGTTFYADSVKGRFTISRDNAKNTVYLQMNSLKPEDTAVYYCNTLGNWRPVYNQPRYEYWGQGTQVTVSS | high polyreactivity
31 | QVQLVESGGGLVQAGGSLRLSCAASGRIFRFYAMGWYRQAPGKERELVAAISSRGGSTYDADSVKGRFTISRDNAKNTVYLQMNSLKPEDTAVYYCNAYGSTSQMDYWGQGTQVTVSS | high polyreactivity
32 | QVQLVESGGGLVQAGGSLRLSCAASGRIFRFYAMGWYRQAPGKERELVAAISWRGGRTYYADSVKGRFTISRDNAKNTVYVQMNSLKPEDTAVYYCNADKYETSGWKYVSWGQGTQVTVSS | low polyreactivity
33 | QVQLVESGGGLVQAGGSLRLSCAASGRIFRFYAMGWYRQAPGKERELVAAITYGGGTTYYADSVKGRFTISRDNAKNTVYLQMNSLKPEDTAVYYCAADHRQGYDHEYDYWGQGTQVTVSS | low polyreactivity
34 | QVQLVESGGGLVQAGGSLRLSCAASGRIFRFYAMGWYRQAPGKERELVAGITYSGGSTFYADSVKGRFTISRDNAKNTVYLQMNSLKPEDTAVYYCAAVYVPYYWLGRSRGLDYWGQGTQVTVSS | high polyreactivity
35 | QVQLVESGGGLVQAGGSLRLSCAASGRIFRFYAMGWYRQAPRKERELVAAITSGGSTYYADSVKGRFTISRDNAKNTVYLQMNSLKPEDTAVYYCANYYWGQGTQVTVSS | low polyreactivity
36 | QVQLVESGGGLVQAGGSLRLSCAASGRIFRGNAMGWSRQAPGKERELVAGISVRGGRTYYADSVKGRFTISRDNAKNTVYLQMNSLKPEDTAVYYCAAVFWDDYGKYYYWGQGTQVTVSS | high polyreactivity
37 | QVQLVESGGGLVQAGGSLRLSCAASGRIFRGNAMGWYRQAPGKERELVAAINYSGGSTYYADSVKGRFTISRDNAKNTVYLQMNSLKPEDTAVYYCAAEPGQYGWYYGYGYWGQGTQVTVSS | high polyreactivity
38 | QVQLVESGGGLVQAGGSLRLSCAASGRIFRGNTMGWYRQAPGKERELVAAITIRGRTYYADSVKGRFTISRDNAKNTVYLQMNSLKPEDTAVYYCAVASAGDNDYWGQGTQVTVSS | low polyreactivity
39 | QVQLVESGGGLVQAGGSLRLSCAASGRIFRGYAMAWYRQAPGKERELVAAISGRGGRTNYADSVKGRFTISRDNAKNTVYLQMNSLKPEDTAVYYCATVPYTASRYEYWGQGTQVTVSS | high polyreactivity
40 | QVQLVESGGGLVQAGGSLRLSCAASGRIFRGYAMGWYRQAPGKEREFVAAITKNGGSTYYADSVKGRFTISRDNAKNTVYLQMNSLKPEDTAVYYCNAGTFTRRRGLDYWGQGTQVTVSS | low polyreactivity
41 | QVQLVESGGGLVQAGGSLRLSCAASGRIFRGYAMGWYRQAPGKERELVAAIDRVGRTKYADSVKGRFTISRDNAKNTVYLQMNSLKPEDTAVYYCAAKASRVDWGYGYWGQGTQVTVSS | high polyreactivity
42 | QVQLVESGGGLVQAGGSLRLSCAASGRIFRGYAMGWYRQAPGKERELVAAISGSGGSTYYADSVKGRFTISRDNAKNTVYLQMNSLKPEDTAVYYCAADQQSTGDWAGDYWGQGTQVTVSS | low polyreactivity
43 | QVQLVESGGGLVQAGGSLRLSCAASGRIFRHKAMGWYRQAPGKETELVAAITSRGGTYYADSVKGRFTISRDNAKNTVYLQMNSLKPEDTAFYFCNADQALYSSGNKYDYWGQGTQVTVSS | low polyreactivity
